This note sets out measurements from patent publication US20060078953.

This data set has as its system histone H4 methylated at arginine 3.

In the case of “commercially available skeletal muscle PAD”, the “Western blot staining with antibodies to methylated arginine 3 H4 after PAD treatment” value is recorded as “A complete loss of staining with antibodies to this modification was observed following PAD treatment”.
